B1: Speckle-type POZ protein (Homo sapiens), O43791 (parent)
chain: MSRVPSPPPPAEMSSGPVAESWCYTQIKVVKFSYMWTINNFSFCREEMGEVIKSSTFSSGANDKLKWCLRVNPKGLDEESKDYLSLYLLLVSCPKSEVRAKFKFSILNAKGEETKAMESQRAYRFVQGKDWGFKKFIRRDFLLDEANGLLPDDKLTLFCEVSVVQDSVNISGQNTMNMVKVPECRLADELGGLWENSRFTDCCLCVAGQEFQAHKAILAARSPVFSAMFEHEMEESKKNRVEINDVEPEVFKEMMCFIYTGKAPNLDKMADDLLAAADKYALERLKVMCEDALCSNLSVENAAEILILADLHSADQLKTQAVDFINYHASDVLETSGWKSMVVSHPHLVAEAYRSLASAQCPFLGPPRKRLKQS
partner: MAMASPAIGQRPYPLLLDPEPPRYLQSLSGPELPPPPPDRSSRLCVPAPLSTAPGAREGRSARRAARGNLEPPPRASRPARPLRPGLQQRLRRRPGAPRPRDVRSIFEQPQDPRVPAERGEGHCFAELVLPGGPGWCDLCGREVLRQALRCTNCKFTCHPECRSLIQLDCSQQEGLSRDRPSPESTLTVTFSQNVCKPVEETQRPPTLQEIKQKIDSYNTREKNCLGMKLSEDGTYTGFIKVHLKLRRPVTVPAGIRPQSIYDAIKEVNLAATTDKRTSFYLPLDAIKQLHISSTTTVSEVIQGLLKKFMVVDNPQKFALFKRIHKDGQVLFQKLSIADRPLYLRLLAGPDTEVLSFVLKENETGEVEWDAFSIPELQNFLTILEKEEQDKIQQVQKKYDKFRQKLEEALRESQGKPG
B2: Speckle-type POZ protein (Homo sapiens), O43791 (parent)
chain: B1 chain
partner: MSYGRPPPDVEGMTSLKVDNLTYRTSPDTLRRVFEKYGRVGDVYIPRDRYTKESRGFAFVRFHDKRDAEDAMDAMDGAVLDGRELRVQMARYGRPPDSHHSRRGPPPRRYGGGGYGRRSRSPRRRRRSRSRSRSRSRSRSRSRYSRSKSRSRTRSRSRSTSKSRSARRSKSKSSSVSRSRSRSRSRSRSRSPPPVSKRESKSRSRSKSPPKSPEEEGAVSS
B3: Speckle-type POZ protein (Homo sapiens), O43791 (parent)
chain: B1 chain
partner: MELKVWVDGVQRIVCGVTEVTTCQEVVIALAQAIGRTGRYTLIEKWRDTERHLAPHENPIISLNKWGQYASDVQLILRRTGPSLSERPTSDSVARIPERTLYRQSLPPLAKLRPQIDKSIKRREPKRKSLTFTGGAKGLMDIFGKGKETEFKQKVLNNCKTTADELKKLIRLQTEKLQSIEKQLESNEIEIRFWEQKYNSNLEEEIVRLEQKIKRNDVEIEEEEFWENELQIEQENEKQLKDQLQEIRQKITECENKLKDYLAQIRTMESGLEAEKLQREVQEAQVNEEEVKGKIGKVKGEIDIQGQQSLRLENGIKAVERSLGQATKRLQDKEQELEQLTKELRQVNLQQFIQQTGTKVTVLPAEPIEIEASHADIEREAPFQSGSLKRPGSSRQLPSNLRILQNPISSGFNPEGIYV
B4: Speckle-type POZ protein (Homo sapiens), O43791 (parent)
chain: B1 chain
partner: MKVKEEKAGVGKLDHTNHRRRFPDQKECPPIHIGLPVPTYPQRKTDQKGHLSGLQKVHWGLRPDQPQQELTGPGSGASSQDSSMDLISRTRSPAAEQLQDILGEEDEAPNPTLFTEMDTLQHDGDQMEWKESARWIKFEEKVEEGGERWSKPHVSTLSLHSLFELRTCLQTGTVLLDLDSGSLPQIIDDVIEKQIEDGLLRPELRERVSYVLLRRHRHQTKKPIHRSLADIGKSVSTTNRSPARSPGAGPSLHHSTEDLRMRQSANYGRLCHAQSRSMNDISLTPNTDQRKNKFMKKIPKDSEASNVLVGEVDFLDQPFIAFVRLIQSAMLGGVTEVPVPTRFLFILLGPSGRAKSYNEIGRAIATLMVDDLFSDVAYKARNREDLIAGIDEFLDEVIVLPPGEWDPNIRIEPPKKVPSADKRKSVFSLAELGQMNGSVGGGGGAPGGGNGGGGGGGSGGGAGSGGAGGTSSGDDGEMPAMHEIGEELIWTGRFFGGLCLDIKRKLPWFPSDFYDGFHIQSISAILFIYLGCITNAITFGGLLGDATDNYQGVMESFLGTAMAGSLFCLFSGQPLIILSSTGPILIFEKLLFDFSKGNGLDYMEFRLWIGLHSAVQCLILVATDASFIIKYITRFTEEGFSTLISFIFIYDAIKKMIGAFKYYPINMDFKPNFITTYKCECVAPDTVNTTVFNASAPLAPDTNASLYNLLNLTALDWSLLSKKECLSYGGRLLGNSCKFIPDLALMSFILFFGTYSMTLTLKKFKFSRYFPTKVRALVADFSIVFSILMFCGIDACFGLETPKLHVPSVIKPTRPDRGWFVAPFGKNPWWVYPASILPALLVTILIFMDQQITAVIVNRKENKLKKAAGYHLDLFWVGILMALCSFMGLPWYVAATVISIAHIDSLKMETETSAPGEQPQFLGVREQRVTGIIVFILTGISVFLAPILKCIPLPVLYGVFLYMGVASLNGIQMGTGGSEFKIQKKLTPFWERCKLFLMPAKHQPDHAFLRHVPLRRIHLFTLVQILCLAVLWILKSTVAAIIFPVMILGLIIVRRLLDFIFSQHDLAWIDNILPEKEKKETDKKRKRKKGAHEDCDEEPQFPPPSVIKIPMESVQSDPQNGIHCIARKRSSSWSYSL
B5: Speckle-type POZ protein (Homo sapiens), O43791 (parent)
chain: B1 chain
partner: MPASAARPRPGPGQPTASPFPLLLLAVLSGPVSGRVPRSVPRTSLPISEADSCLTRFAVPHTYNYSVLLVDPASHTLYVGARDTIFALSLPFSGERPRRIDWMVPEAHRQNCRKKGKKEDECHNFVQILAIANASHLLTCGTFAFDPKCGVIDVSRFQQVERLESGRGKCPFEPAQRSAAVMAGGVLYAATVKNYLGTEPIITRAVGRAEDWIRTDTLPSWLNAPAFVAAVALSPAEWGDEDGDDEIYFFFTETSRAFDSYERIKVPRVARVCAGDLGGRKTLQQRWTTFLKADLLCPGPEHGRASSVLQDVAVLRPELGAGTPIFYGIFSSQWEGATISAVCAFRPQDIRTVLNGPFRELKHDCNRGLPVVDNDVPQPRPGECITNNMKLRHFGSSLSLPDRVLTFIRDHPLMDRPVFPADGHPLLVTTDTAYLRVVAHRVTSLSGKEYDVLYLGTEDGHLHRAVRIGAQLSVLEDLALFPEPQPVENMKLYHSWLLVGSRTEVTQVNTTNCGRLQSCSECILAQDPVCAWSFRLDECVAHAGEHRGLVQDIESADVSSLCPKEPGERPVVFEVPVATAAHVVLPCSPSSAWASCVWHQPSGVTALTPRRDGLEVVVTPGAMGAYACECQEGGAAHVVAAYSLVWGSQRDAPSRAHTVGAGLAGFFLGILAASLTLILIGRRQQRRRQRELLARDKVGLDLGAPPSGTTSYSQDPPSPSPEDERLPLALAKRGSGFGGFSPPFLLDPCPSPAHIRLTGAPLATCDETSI
B6: Speckle-type POZ protein (Homo sapiens), O43791 (parent)
chain: B1 chain
partner: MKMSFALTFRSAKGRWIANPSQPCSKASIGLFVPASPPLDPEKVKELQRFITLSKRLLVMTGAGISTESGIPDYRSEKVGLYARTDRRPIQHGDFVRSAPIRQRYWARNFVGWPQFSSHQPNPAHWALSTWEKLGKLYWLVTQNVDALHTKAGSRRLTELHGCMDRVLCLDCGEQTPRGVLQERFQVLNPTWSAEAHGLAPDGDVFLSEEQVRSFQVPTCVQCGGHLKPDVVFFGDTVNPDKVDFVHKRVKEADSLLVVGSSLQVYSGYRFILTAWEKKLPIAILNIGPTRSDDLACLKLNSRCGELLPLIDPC

Variants of: B1
Conditions: with rasf5_human RASSF5, Q8WWW0

effect of a mutation on the interaction | Variant
with no effect | F133V

Variants of: B1
Conditions: with rasf5_human RASSF5, Q8WWW0
Remark: another data set of the same source

effect of a mutation on the interaction | Variant
with no effect | F133L

Variants of: B1
Conditions: with rasf5_human RASSF5, Q8WWW0
Remark: another data set of the same source

effect of a mutation on the interaction | Variant
with no effect | Y87C

Variants of: B1
Conditions: with rasf5_human RASSF5, Q8WWW0
Remark: another data set of the same source

effect of a mutation on the interaction | Variant
with no effect | F102C

Variants of: B2
Conditions: with srsf2_human SRSF2, Q01130

effect of a mutation on the interaction | Variant
with no effect | F102C

Variants of: B2
Conditions: with srsf2_human SRSF2, Q01130
Remark: another data set of the same source

effect of a mutation on the interaction | Variant
with no effect | Y87C

Variants of: B2
Conditions: with srsf2_human SRSF2, Q01130
Remark: another data set of the same source

effect of a mutation on the interaction | Variant
with no effect | F133V

Variants of: B2
Conditions: with srsf2_human SRSF2, Q01130
Remark: another data set of the same source

effect of a mutation on the interaction | Variant
with no effect | F133L

Variants of: B3
Conditions: with rasf8_human RASSF8, Q8NHQ8

effect of a mutation on the interaction | Variant
with no effect | Y87C

Variants of: B3
Conditions: with rasf8_human RASSF8, Q8NHQ8
Remark: another data set of the same source

effect of a mutation on the interaction | Variant
with no effect | F102C

Variants of: B3
Conditions: with rasf8_human RASSF8, Q8NHQ8
Remark: another data set of the same source

effect of a mutation on the interaction | Variant
with no effect | F133V

Variants of: B3
Conditions: with rasf8_human RASSF8, Q8NHQ8
Remark: another data set of the same source

effect of a mutation on the interaction | Variant
with no effect | F133L

Variants of: B4
Conditions: with s4a5_human SLC4A5, Q9BY07

effect of a mutation on the interaction | Variant
with no effect | F102C

Variants of: B4
Conditions: with s4a5_human SLC4A5, Q9BY07
Remark: another data set of the same source

effect of a mutation on the interaction | Variant
with no effect | F133L

Variants of: B4
Conditions: with s4a5_human SLC4A5, Q9BY07
Remark: another data set of the same source

effect of a mutation on the interaction | Variant
with no effect | F133V

Variants of: B4
Conditions: with s4a5_human SLC4A5, Q9BY07
Remark: another data set of the same source

effect of a mutation on the interaction | Variant
with no effect | Y87C

Variants of: B5
Conditions: with sem4f_human SEMA4F

effect of a mutation on the interaction | Variant
with no effect | Y87C

Variants of: B5
Conditions: with sem4f_human SEMA4F
Remark: another data set of the same source

effect of a mutation on the interaction | Variant
with no effect | F133V

Variants of: B5
Conditions: with sem4f_human SEMA4F
Remark: another data set of the same source

effect of a mutation on the interaction | Variant
with no effect | F133L

Variants of: B5
Conditions: with sem4f_human SEMA4F
Remark: another data set of the same source

effect of a mutation on the interaction | Variant
with no effect | F102C

Variants of: B6
Conditions: with sir4_human SIRT4, Q9Y6E7

effect of a mutation on the interaction | Variant
with no effect | Y87C

Variants of: B6
Conditions: with sir4_human SIRT4, Q9Y6E7
Remark: another data set of the same source

effect of a mutation on the interaction | Variant
with no effect | F133L

Variants of: B6
Conditions: with sir4_human SIRT4, Q9Y6E7
Remark: another data set of the same source

effect of a mutation on the interaction | Variant
with no effect | F133V

From IntAct's records for PubMed 35512704
